Measurements: article PMC8762078 (The Journal of Biological Chemistry, 2021)

B1: LC3C (microtubule-associated protein 1A/1B light chain 3C) (natural protein, human, UniProt Q9BXW4 1-126, looked up)
chain: MPPPQKIPSVRPFKQRKSLAIRQEEVAGIRAKFPNKIPVVVERYPRETFLPPLDKTKFLVPQELTMTQFLSIIRSRMVLRATEAFYLLVNNKSLVSMSATMAEIYRDYKDEDGFVYMTYASQETFG
B2: p62 WT-AIM peptide (peptide)
peptide: SGGDDDWTHLSS
notes: also called p62 AIM; source: synthetic peptide; bought: Genosphere Biotechnologies and Peptide Synthetics
B3: p62 L341V-AIM peptide (peptide)
peptide: SGGDDDWTHVSS
notes: also called L341V-mutant peptide; mutant AIM; source: synthetic peptide; bought: Genosphere Biotechnologies and Peptide Synthetics

Legend:
Details in all cases: both partners purified
p62 WT-AIM peptide = target: B2; assay: native MS; ESI-MS competition binding under nondenaturing conditions: each hATG8 titrated into an equimolar mixture of WT-AIM and L341V-AIM peptides (each 10 μM); read-out is the ratio of peak intensities of unbound WT and L341V peptides; ratios given for 20 μM hATG8; two independent experiments
[1] = target: LC3B (microtubule-associated protein 1A/1B light chain 3B) (human, UniProt Q9GZQ8 1-120); assay: ITC; MicroCal VP-ITC, 30 °C; protein 10 μM in the cell, 10 μl injections of peptide (100-150 μM); 25 mM potassium phosphate, 150 mM NaCl, pH 7.0; no reducing agent; one site binding model; two independent measurements
[2] = target: LC3A (microtubule-associated protein 1A/1B light chain 3A) (human, UniProt Q9H492 1-121); assay: as above
[3] = target: B1; assay: as above
GABARAPL1 = GABARAPL1 (human, UniProt Q9H0R8 1-117); assay: as above
GABARAPL2 = target: T1, GABARAPL2 (human, UniProt P60520 1-117); assay: as above
T1 construct: GABARAPL2, human ATG8 protein of the GABARAP subfamily; 15N-labelled (13C,15N for assignment) in M9 minimal medium for the NMR experiments; Cloned into pGEX-4T-1 between BamHI and XhoI; thrombin cleavage may leave a few vector residues at the N-terminus (surmised); also called hATG8; source: E. coli BL21 (DE3), purified (Glutathione Sepharose, thrombin cleavage, ion exchange, gel filtration); not …
T1 sequence (P60520 whole entry): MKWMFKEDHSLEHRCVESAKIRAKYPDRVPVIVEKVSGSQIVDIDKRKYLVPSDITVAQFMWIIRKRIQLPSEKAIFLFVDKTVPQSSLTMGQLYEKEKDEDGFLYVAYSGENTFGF

GABARAPL1, sequence (Q9H0R8 whole entry): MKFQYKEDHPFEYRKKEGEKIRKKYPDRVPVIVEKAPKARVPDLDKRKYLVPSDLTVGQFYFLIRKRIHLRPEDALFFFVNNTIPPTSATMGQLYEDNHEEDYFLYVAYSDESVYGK

| Binder | ratio of unbound WT:L341V AIM peptides at 20 μM hATG8 (reference: L341V-AIM) (p62 WT-AIM peptide) | Kd [1] [µM] | dH [1] [kcal/mol] | Kd [2] [µM] | dH [2] [kcal/mol] | stoichiometry N [2] | Kd [3] [µM] | dH [3] [kcal/mol] | stoichiometry N [3] | Kd (GABARAPL1) [µM] | dH (GABARAPL1) [kcal/mol] | stoichiometry N (GABARAPL1) | dH (GABARAPL2) [kcal/mol] | stoichiometry N (GABARAPL2) | Kd (GABARAPL2) [µM] |
| --- | --- | --- | --- | --- | --- | --- | --- | --- | --- | --- | --- | --- | --- | --- | --- |
| B1 | > 0.95 |  |  |  |  |  |  |  |  |  |  |  |  |  |  |
| B2 |  | 3.83 | -10.7 | 4.55 | -17.9 | 1.05 | 16.8 | -3.59 | 0.82 | 3.23 | -5.61 | 0.86 | -2.43 | 1.07 |  |
| B3 |  | 8.47 |  |  | -6.3 |  |  | -5.38 | 0.9 | 5.78 | -5.37 | 0.98 | -4 | 1.03 | 6.99 |
